Reference: the supplement of paper PMC10567573

B1: TRIM55 (parent)
chain: FQASNPYLPTRGGTTMASGGRFRC

Variants of: B1
Assay: protein stability index of a GFP-peptide fusion (GPS, HEK-293T) (PSI 1-6); higher = more stable
Details: c terminus: a fixed tail appended
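Also: lentivirally expressed fusions sorted by FACS into six bins by GFP to DsRed ratio, PSI derived from sequencing read proportions per bin multiplied by bin number.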

Protein stability index of substitutions, site by site:
M16: L 1.79; E 1.12; P 2.92; V 1.27; Y 1.98; N 2.02; Q 1.57; A 1.57; R 1.86; W 1.42; T 1.99; C 1.77; K 3.34; S 2.67; I 2.83; D 1.65; G 2.5; F 1.76; H 1.69
G19: N 1.77; T 2.28; S 1.83; H 2.48; M 1.49; Q 2.06; C 2.9; Y 2.06; R 1.9; D 2.06; L 2; K 2.39; V 2.07; E 1.71; P 1.83; W 1.63; I 2.04; F 1.91; A 1.7
R21: Q 1.85; E 2.18; K 3.08; P 2.12; H 1.68; L 2.42; F 1.71; M 1.81; A 1.18; V 1.42; C 2.35; S 1.75; I 1.42; T 1.04; G 1.53; D 1.81; N 2.49; Y 1.68
A17: P 1.76; D 1.76; L 2.54; N 2.27; E 2.52; Q 2.02; R 2.27; W 1.76; T 1.84; F 1.88; V 3.21; M 1.93; S 2.14; H 1.85; C 2.24; I 1.08; G 1.45; K 1.79; Y 2.11
F22: R 2.13; N 2.14; G 1.43; W 2.51; I 1.57; C 2.18; Q 3.22; P 3.87; V 1.38; H 2.29; M 2.25; E 2.46; K 2.61; A 1.42; T 1.8; D 1.41; S 1.75
G20: H 1.66; W 2.07; I 1.73; S 1.34; V 1.77; P 2.19; A 2.62; N 1.72; M 3.49; Y 1.63; R 1.96; Q 1.68; E 1.97; L 2.24; C 1.6; T 1.71; F 1.53; D 1.72; K 2.1
T14: A 1.93; K 2.3; G 1.67; E 2.09; V 1.54; Q 2.52; D 1.27; P 2.47; I 2; L 2.34; N 1.73; W 1.32; H 1.37; S 2.11; R 1.41; M 2.32; F 1.5; C 2.23; Y 1.5
S18: M 2.51; H 1.57; R 2.24; P 1.79; A 1.97; V 1.21; G 2.35; Q 2.07; N 2.19; T 2.23; I 1.48; C 1.35; D 2.09; L 2.45; E 2.22; K 3.05; F 1.95; Y 2.22
T15: I 1.88; P 1.52; L 1.69; V 2.54; C 1.28; N 2.3; F 1.57; Y 1.73; M 1.72; A 2.24; S 1.69; H 1.18; K 2.19; G 2.85; R 2.93; W 1.75; Q 1.65; E 1.48; D 1.75
